These are literature values, as cited in article PMC4166557.

For the data set, the target named is MLL MBM1 4-15 (Homo sapiens) (UniProt Q03164).

In general, Kd refers to the free concentration of one partner at which half of the binding sites on the other are occupied at equilibrium, for simple one-to-one binding. Turning to menin (from UniProt O00255), the Kd is 56 nM.
